For the assay, the target named is Fc receptor on THP-1 cells. The assay can be described thus: cell-based or functional assay.

RAGE fusion protein TTP-4000 (Fc fusion), sequence (chain): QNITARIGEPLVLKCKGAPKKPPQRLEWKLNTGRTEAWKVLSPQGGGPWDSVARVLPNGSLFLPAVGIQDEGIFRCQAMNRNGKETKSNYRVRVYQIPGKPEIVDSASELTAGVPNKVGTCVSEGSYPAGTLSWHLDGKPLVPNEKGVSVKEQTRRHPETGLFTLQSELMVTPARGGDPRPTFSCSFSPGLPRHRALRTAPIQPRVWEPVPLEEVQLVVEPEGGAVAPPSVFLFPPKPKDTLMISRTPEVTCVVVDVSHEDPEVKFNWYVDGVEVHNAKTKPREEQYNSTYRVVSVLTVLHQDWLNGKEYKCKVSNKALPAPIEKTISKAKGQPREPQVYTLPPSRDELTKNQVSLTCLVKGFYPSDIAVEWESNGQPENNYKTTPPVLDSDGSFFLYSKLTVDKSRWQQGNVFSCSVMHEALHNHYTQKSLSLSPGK

“RAGE fusion protein TTP-4000 (Fc fusion)” returned a TNF-α secretion from THP-1 cells on wells coated with 10 ug/well heat aggregated protein of less than 2 ng/well. Under “human IgG1 (heat aggregated, coated on the well) (antibody)” stands greater than 40 ng/well.

The values are drawn from US20080199467A1.
